In patent US20250145694A1 (GUANGDONG FEIPENG BIOLOGICAL, published 2025):

Biological target: T1, CTNI quality control recombinant antigen (human, UniProt P19429 1-210, limits assumed)
T1 construct: Recombinant antigen produced by the applicant; also called CTNI quality control recombinant protein (antigen produced by the company); cardiac troponin I
Assay: BLI, antibody on AMC sensor, cTnI in solution
Method: With an AMC sensor, the purified antibody was diluted to 10 μg/ml with PBST, and CTNI quality control recombinant protein (antigen produced by the company) was gradient diluted with PBST to 769.2 nmol/ml, 384.6 nmol/ml, 192.3 nmol/ml, 96.2 nmol/ml, 48.1 nmol/ml, 24 nmol/ml, 12 nmol/ml, and 0 nmol/ml.

T1 sequence (P19429 whole entry): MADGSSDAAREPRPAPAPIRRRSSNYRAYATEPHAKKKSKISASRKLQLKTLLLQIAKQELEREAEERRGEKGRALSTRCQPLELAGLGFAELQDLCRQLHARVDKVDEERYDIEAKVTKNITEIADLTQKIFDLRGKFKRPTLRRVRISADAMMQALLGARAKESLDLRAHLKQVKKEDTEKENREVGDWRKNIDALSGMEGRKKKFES

Row | Binder | Kd | koff | kon
1 | Mutation 1-25 (antibody, assembled FR/CDR/constant) heavy: EVQMVESGGGLLKPGGSLKLSCAASGFTFSNYAMSWVRQTPEKRLEWVATISSGGSYSFYPDSVKGRFTISRDNAKNTLYLQMLSLRSEDTAMYYCARRDNYFGSSFMDYWGQGSSVTVSSAKTTPPSVYPLAPGSAAQTNSMVTLGCLVKGYFPEPVTVTWNSGSLSSGVHTFPAVLQSDLYTLSSSVTVPSSTWPSQTVTCNVAHPASSTKVDKKIVPRDCGCKPCICTVPEVSSVFIFPPKPKDVLTITLTPKVTCVVVDISKDDPEVQFSWFVDDVEVHTAQTKPREEQFNSTFRSVSELPIMHQDWLNGKEFKCRVNSAAFPAPIEKTISKTKGRPKAPQVYTIPPPKEQMAKDKVSLTCMITNFFPEDITVEWQWNGQPAENYKNTQPIMDTDGSYFVYSKLNVQKSNWEAGNTFTCSVLHEGLHNHHTEKSLSHSPG light: DIQMTQTSSSLSASLGDRVTISCRASQDITNYLNWYQQKPDGTIKLLIYYTSRLHSGVSSRFSGSGSGTDYSLTISNLEQEDIATYFCQQGNTLPLTFDTGTKLELKRADAAPTVSIFPPSSEQLTSGGASVVCFLNNFYPKDINVKWKIDGSERQNGVLNSWTDQDSKDSTYSMSSTLTLTKDEYERHNSYTCEATHKTSTSPIVKSFNRNEC | 5.36 nM | 0.000364 s⁻¹ | 67900 M⁻¹ s⁻¹
2 | Mutation 1-30 (antibody, assembled FR/CDR/constant) heavy: EVQMVESGGGLLKPGGSLKLSCAASGFTYSNYAMSWVRQTPEKRLEWVATISSGGSYSFYPDSVKGRFTISRDNAKNTLYLQMLSLRSEDTAMYYCARRDNYFGSSFMDYWGQGSSVTVSSAKTTPPSVYPLAPGSAAQTNSMVTLGCLVKGYFPEPVTVTWNSGSLSSGVHTFPAVLQSDLYTLSSSVTVPSSTWPSQTVTCNVAHPASSTKVDKKIVPRDCGCKPCICTVPEVSSVFIFPPKPKDVLTITLTPKVTCVVVDISKDDPEVQFSWFVDDVEVHTAQTKPREEQFNSTFRSVSELPIMHQDWLNGKEFKCRVNSAAFPAPIEKTISKTKGRPKAPQVYTIPPPKEQMAKDKVSLTCMITNFFPEDITVEWQWNGQPAENYKNTQPIMDTDGSYFVYSKLNVQKSNWEAGNTFTCSVLHEGLHNHHTEKSLSHSPG light: DIQMTQTSSSLSASLGDRVTISCRASQEITNYLNWYQQKPDGTIKLLIYYTSRLHSGVSSRFSGSGSGTDYSLTISNLEQEDIATYFCQQGHTIPLTFDTGTKLELKRADAAPTVSIFPPSSEQLTSGGASVVCFLNNFYPKDINVKWKIDGSERQNGVLNSWTDQDSKDSTYSMSSTLTLTKDEYERHNSYTCEATHKTSTSPIVKSFNRNEC | 5.76 nM | 0.000163 s⁻¹ | 28300 M⁻¹ s⁻¹
3 | Mutation 1-26 (antibody, assembled FR/CDR/constant) heavy: EVQMVESGGGLLKPGGSLKLSCAASGFTYSNYAMSWVRQTPEKRLEWVATISSGGSYSFYPDSVKGRFTISRDNAKNTLYLQMLSLRSEDTAMYYCARRDNYYGSTFMDYWGQGSSVTVSSAKTTPPSVYPLAPGSAAQTNSMVTLGCLVKGYFPEPVTVTWNSGSLSSGVHTFPAVLQSDLYTLSSSVTVPSSTWPSQTVTCNVAHPASSTKVDKKIVPRDCGCKPCICTVPEVSSVFIFPPKPKDVLTITLTPKVTCVVVDISKDDPEVQFSWFVDDVEVHTAQTKPREEQFNSTFRSVSELPIMHQDWLNGKEFKCRVNSAAFPAPIEKTISKTKGRPKAPQVYTIPPPKEQMAKDKVSLTCMITNFFPEDITVEWQWNGQPAENYKNTQPIMDTDGSYFVYSKLNVQKSNWEAGNTFTCSVLHEGLHNHHTEKSLSHSPG light: DIQMTQTSSSLSASLGDRVTISCRASQEITNYLNWYQQKPDGTIKLLIYYTSRIHSGVSSRFSGSGSGTDYSLTISNLEQEDIATYFCQQGHTLPLTFDTGTKLELKRADAAPTVSIFPPSSEQLTSGGASVVCFLNNFYPKDINVKWKIDGSERQNGVLNSWTDQDSKDSTYSMSSTLTLTKDEYERHNSYTCEATHKTSTSPIVKSFNRNEC | 1.38 nM | 3.48e-05 s⁻¹ | 25200 M⁻¹ s⁻¹
4 | Mutation 1-27 (antibody, assembled FR/CDR/constant) heavy: not shown light: DIQMTQTSSSLSASLGDRVTISCRASQDITNYLNWYQQKPDGTIKLLIYYTSRLHSGVSSRFSGSGSGTDYSLTISNLEQEDIATYFCQQGNTIPLTFDTGTKLELKRADAAPTVSIFPPSSEQLTSGGASVVCFLNNFYPKDINVKWKIDGSERQNGVLNSWTDQDSKDSTYSMSSTLTLTKDEYERHNSYTCEATHKTSTSPIVKSFNRNEC | 6.3 nM | 0.000501 s⁻¹ | 79600 M⁻¹ s⁻¹
5 | Mutation 1-29 (antibody, assembled FR/CDR/constant) heavy: EVQMVESGGGLLKPGGSLKLSCAASGFTFSNYAMSWVRQTPEKRLEWVATISSGGSYSFYPDSVKGRFTISRDNAKNTLYLQMLSLRSEDTAMYYCARRDNYFGSSFMDYWGQGSSVTVSSAKTTPPSVYPLAPGSAAQTNSMVTLGCLVKGYFPEPVTVTWNSGSLSSGVHTFPAVLQSDLYTLSSSVTVPSSTWPSQTVTCNVAHPASSTKVDKKIVPRDCGCKPCICTVPEVSSVFIFPPKPKDVLTITLTPKVTCVVVDISKDDPEVQFSWFVDDVEVHTAQTKPREEQFNSTFRSVSELPIMHQDWLNGKEFKCRVNSAAFPAPIEKTISKTKGRPKAPQVYTIPPPKEQMAKDKVSLTCMITNFFPEDITVEWQWNGQPAENYKNTQPIMDTDGSYFVYSKLNVQKSNWEAGNTFTCSVLHEGLHNHHTEKSLSHSPG light: DIQMTQTSSSLSASLGDRVTISCRASQEITNYLNWYQQKPDGTIKLLIYYTSRIHSGVSSRFSGSGSGTDYSLTISNLEQEDIATYFCQQGNTIPLTFDTGTKLELKRADAAPTVSIFPPSSEQLTSGGASVVCFLNNFYPKDINVKWKIDGSERQNGVLNSWTDQDSKDSTYSMSSTLTLTKDEYERHNSYTCEATHKTSTSPIVKSFNRNEC | 7.59 nM | 0.000197 s⁻¹ | 26000 M⁻¹ s⁻¹
6 | Mutation 1-28 (antibody, assembled FR/CDR/constant) heavy: EVQMVESGGGLLKPGGSLKLSCAASGFTYSNYAMSWVRQTPEKRLEWVATISSGGSYSYYPDSVKGRFTISRDNAKNTLYLQMLSLRSEDTAMYYCARRDNYPGSTFMDYWGQGSSVTVSSAKTTPPSVYPLAPGSAAQTNSMVTLGCLVKGYFPEPVTVTWNSGSLSSGVHTFPAVLQSDLYTLSSSVTVPSSTWPSQTVTCNVAHPASSTKVDKKIVPRDCGCKPCICTVPEVSSVFIFPPKPKDVLTITLTPKVTCVVVDISKDDPEVQFSWFVDDVEVHTAQTKPREEQFNSTFRSVSELPIMHQDWLNGKEFKCRVNSAAFPAPIEKTISKTKGRPKAPQVYTIPPPKEQMAKDKVSLTCMITNFFPEDITVEWQWNGQPAENYKNTQPIMDTDGSYFVYSKLNVQKSNWEAGNTFTCSVLHEGLHNHHTEKSLSHSPG light: DIQMTQTSSSLSASLGDRVTISCRASQDITNYLNWYQQKPDGTIKLLIYYTSRLHSGVSSRFSGSGSGTDYSLTISNLEQEDIATYFCQQGHTLPLTFDTGTKLELKRADAAPTVSIFPPSSEQLTSGGASVVCFLNNFYPKDINVKWKIDGSERQNGVLNSWTDQDSKDSTYSMSSTLTLTKDEYERHNSYTCEATHKTSTSPIVKSFNRNEC | 3.68 nM | 4.31e-05 s⁻¹ | 11700 M⁻¹ s⁻¹

Now from value to binder:

Row | Kd | koff | kon | Binder
7 | 8.38 nM | 0.000266 s⁻¹ | 31700 M⁻¹ s⁻¹ | Mutation 1-32 (antibody, assembled FR/CDR/constant) heavy: EVQMVESGGGLLKPGGSLKLSCAASGFTYSNYAMSWVRQTPEKRLEWVATISSGGSYSYYPDSVKGRFTISRDNAKNTLYLQMLSLRSEDTAMYYCARRDNYYGSSFMDYWGQGSSVTVSSAKTTPPSVYPLAPGSAAQTNSMVTLGCLVKGYFPEPVTVTWNSGSLSSGVHTFPAVLQSDLYTLSSSVTVPSSTWPSQTVTCNVAHPASSTKVDKKIVPRDCGCKPCICTVPEVSSVFIFPPKPKDVLTITLTPKVTCVVVDISKDDPEVQFSWFVDDVEVHTAQTKPREEQFNSTFRSVSELPIMHQDWLNGKEFKCRVNSAAFPAPIEKTISKTKGRPKAPQVYTIPPPKEQMAKDKVSLTCMITNFFPEDITVEWQWNGQPAENYKNTQPIMDTDGSYFVYSKLNVQKSNWEAGNTFTCSVLHEGLHNHHTEKSLSHSPG light: DIQMTQTSSSLSASLGDRVTISCRASQDITNYLNWYQQKPDGTIKLLIYYTSRIHSGVSSRFSGSGSGTDYSLTISNLEQEDIATYFCQQGNTIPLTFDTGTKLELKRADAAPTVSIFPPSSEQLTSGGASVVCFLNNFYPKDINVKWKIDGSERQNGVLNSWTDQDSKDSTYSMSSTLTLTKDEYERHNSYTCEATHKTSTSPIVKSFNRNEC
8 | 0.979 nM | 0.000521 s⁻¹ | 532000 M⁻¹ s⁻¹ | Mutation 1-33 (antibody, assembled FR/CDR/constant) heavy: EVQMVESGGGLLKPGGSLKLSCAASGFTFSNYAMSWVRQTPEKRLEWVATISSGGSYSFYPDSVKGRFTISRDNAKNTLYLQMLSLRSEDTAMYYCARRDNYPGSTFMDYWGQGSSVTVSSAKTTPPSVYPLAPGSAAQTNSMVTLGCLVKGYFPEPVTVTWNSGSLSSGVHTFPAVLQSDLYTLSSSVTVPSSTWPSQTVTCNVAHPASSTKVDKKIVPRDCGCKPCICTVPEVSSVFIFPPKPKDVLTITLTPKVTCVVVDISKDDPEVQFSWFVDDVEVHTAQTKPREEQFNSTFRSVSELPIMHQDWLNGKEFKCRVNSAAFPAPIEKTISKTKGRPKAPQVYTIPPPKEQMAKDKVSLTCMITNFFPEDITVEWQWNGQPAENYKNTQPIMDTDGSYFVYSKLNVQKSNWEAGNTFTCSVLHEGLHNHHTEKSLSHSPG light: DIQMTQTSSSLSASLGDRVTISCRASQDITNYLNWYQQKPDGTIKLLIYYTSRLHSGVSSRFSGSGSGTDYSLTISNLEQEDIATYFCQQGHTIPLTFDTGTKLELKRADAAPTVSIFPPSSEQLTSGGASVVCFLNNFYPKDINVKWKIDGSERQNGVLNSWTDQDSKDSTYSMSSTLTLTKDEYERHNSYTCEATHKTSTSPIVKSFNRNEC
9 | 8.73 nM | 0.000744 s⁻¹ | 85200 M⁻¹ s⁻¹ | Mutation 1-31 (antibody, assembled FR/CDR/constant) heavy: not shown light: DIQMTQTSSSLSASLGDRVTISCRASQDITNYLNWYQQKPDGTIKLLIYYTSRIHSGVSSRFSGSGSGTDYSLTISNLEQEDIATYFCQQGNTLPLTFDTGTKLELKRADAAPTVSIFPPSSEQLTSGGASVVCFLNNFYPKDINVKWKIDGSERQNGVLNSWTDQDSKDSTYSMSSTLTLTKDEYERHNSYTCEATHKTSTSPIVKSFNRNEC
